One experiment concerns MCF7 CARM1 KO cells. The experiment is described as follows: In vivo methylation of BAF155, stable expression, western blot. It is filed as cell-based, human. From the text:
We next sought to assess the impact of CARM1 N-terminal deletion in cells stably expressing mutant enzymes. […] To quantify the affected ADMA-containing peptides in MCF7 CARM1 KO and CARM1 140–608 expressing cells, we employed our quantitative MS method (Fig. 1a) using CARM1 28–608 as a reference for normalization (Supplementary Data 4). […] The magnitude of reduction in CARM1 140–608 cells, however, was slightly less than that in the CARM1 KO cells. […] As indicated by R^2 of 0.65, noticeable differences existed between the levels of ADMA-containing peptides in cells expressing the N-terminal truncation of CARM1 and CARM1 28–608 control (Supplementary Fig. 4f).
Cells were collected by trypsinization, washed with Dulbecco's phosphate buffer saline (Life Technologies, Carlsbad, CA) and lysed by suspension in lysis buffer (50 mM Tris-HCl pH 8.0, 150 mM NaCl, 10% glycerol, 0.5% Triton X-100 and 1 × protease inhibitor cocktail (Sigma-Aldrich)). After brief sonication followed by centrifugation, total protein was quantified using the BioRad Protein Assay (BioRad, Hercules, CA), and 20 μg protein was resolved by SDS–PAGE. Proteins were transferred to a nitrocellulose membrane for 1.5 h at 350 mA. Membranes were blocked with 5% nonfat milk at room temperature for 1 h and incubated overnight with diluted primary antibody at 4 °C. […]
(In western blotting, separated proteins are transferred to a membrane and probed.)

For experiment [1], the system named is HEK293T CARM1 KO cells. The experiment is described as follows: Total ADMA-containing proteins co-precipitated with FLAG-tagged CARM1, western blot. As to conditions: FLAG IP probed with ADMA antibody; compared with CARM1 FL and CARM1 28–608. It is filed as cell-based. From the text: The structure of the N-terminal domain of CARM1 (residues 28–140) resembles those of the EVH1 domains, a subfamily of PH domains that bind proline-rich sequences. With our discovery that CARM1 substrates contain proline-rich motifs, we posited that the protein's N-terminal domain may be required for substrate recognition. To test this hypothesis, we generated three CARM1 constructs: one full-length (CARM1 FL) and two N-terminal truncations CARM1 28–608 and CARM1 140–608 (Fig. 3a). […] We transiently transfected the three FLAG-tagged CARM1 fusion constructs in HEK293T CARM1 KO cells. CARM1 was immunoprecipitated from all three cell lines using anti-FLAG M2 resin, and four known CARM1 substrates/interactors (that is, BAF155 (ref. [20]), MED12 (ref. [30]), PABP1 (ref. [36]) and NCOA3 (ref. [19])) and newly identified TET2 were detected by western blotting. […]
Cells were collected by trypsinization, washed with Dulbecco's phosphate buffer saline (Life Technologies, Carlsbad, CA) and lysed by suspension in lysis buffer (50 mM Tris-HCl pH 8.0, 150 mM NaCl, 10% glycerol, 0.5% Triton X-100 and 1 × protease inhibitor cocktail (Sigma-Aldrich)). After brief sonication followed by centrifugation, total protein was quantified using the BioRad Protein Assay (BioRad, Hercules, CA), and 20 μg protein was resolved by SDS–PAGE. […]

In experiment [2] the test system is HEK293T CARM1 KO cells. The experiment can be described thus: Rescue of endogenous BAF155 and MED12 methylation, transient transfection, western blot. It is filed as cell-based. As to conditions: transient expression in HEK293T CARM1 KO cells. The method, then:
Next, we transiently transfected FL and the two aforementioned CARM1 truncations in HEK293T CARM1 KO cells and measured substrate methylation by western blotting with ADMA antibodies.
Cells were collected by trypsinization, washed with Dulbecco's phosphate buffer saline (Life Technologies, Carlsbad, CA) and lysed by suspension in lysis buffer (50 mM Tris-HCl pH 8.0, 150 mM NaCl, 10% glycerol, 0.5% Triton X-100 and 1 × protease inhibitor cocktail (Sigma-Aldrich)). After brief sonication followed by centrifugation, total protein was quantified using the BioRad Protein Assay (BioRad, Hercules, CA), and 20 μg protein was resolved by SDS–PAGE. Proteins were transferred to a nitrocellulose membrane for 1.5 h at 350 mA. Membranes were blocked with 5% nonfat milk at room temperature for 1 h and incubated overnight with diluted primary antibody at 4 °C. Membranes were then washed and incubated with HRP-conjugated secondary antibody for 1 h at room temperature. Signal was visualized by enhanced chemiluminescence reagents (Thermo Scientific, Rockford, IL) and X-ray film exposure followed by scanning and digitalization. Me-PABP1 and PABP1 antibodies, me-BAF155 antibody[20] and me-MED12 antibody[30] were generated previously in the Xu lab. FLAG antibody (catalogue #F7425) was purchased from Sigma and used at a dilution of 1:5,000; BAF155 antibody (sc-10756) was purchased from Santa Cruz and used at a dilution of 1:1,000; MED12 antibody (ab70842) was purchased from Abcam (Cambridge, MA) and used at 1:1,000 dilution.

B1: CARM1 140–608: CARM1 140–608 lacks the first 140 residues encompassing the EVH1 domain (protein)
chain: RTEESSAVQYFQFYGYLSQQQNMMQDYVRTGTYQRAILQNHTDFKDKIVLDVGCGSGILSFFAAQAGARKIYAVEASTMAQHAEVLVKSNNLTDRIVVIPGKVEEVSLPEQVDIIISEPMGYMLFNERMLESYLHAKKYLKPSGNMFPTIGDVHLAPFTDEQLYMEQFTKANFWYQPSFHGVDLSALRGAAVDEYFRQPVVDTFDIRILMAKSVKYTVNFLEAKEGDLHRIEIPFKFHMLHSGLVHGLAFWFDVAFIGSIMTVWLSTAPTEPLTHWYQVRCLFQSPLFAKAGDTLSGTCLLIANKRQSYDISIVAQVDQTGSKSSNLLDLKNPFFRYTGTTPSPPPGSHYTSPSENMWNTGSTYNLSSGMAVAGMPTAYDLSSVIASGSSVGHNNLIPLANTGIVNHTHSRMGSIMSTGIVQGSSGAQGSGGGSTSAHYAVNSQFTMGGPAISMASPMSIPTNTMHYGS
modifications: left off: FLAG, end not stated, kept
notes: CARM1 140–608 lacks the first 140 residues encompassing the EVH1 domain
In the case of B1, the “In vivo methylation of BAF155” value with MCF7 CARM1 KO cells is recorded as “impaired in vivo methylation of BAF155”. Moreover, the “Abundance of CARM1-interacting (ADMA-containing) proteins” value in the experiment on HEK293T CARM1 KO cells [1] is given as “global decrease in abundance of CARM1-interacting proteins”. Moreover, the “Methylation of endogenous BAF155 and MED12” value in the experiment on HEK293T CARM1 KO cells [2] is listed as “failed to restore endogenous protein methylation”.

The values above are taken from paper PMC5458078, “Global mapping of CARM1 substrates defines enzyme specificity and substrate recognition” (Nature Communications, 2017).
